Measurements published in PMC5710141 (Genes & Development, 2017).

Legend:
AUC = molecular target: the molecule itself; assay: AUC
Mif2c (Mif2 core) dimer = Mif2c (Mif2 core) dimer (Saccharomyces cerevisiae (budding yeast), UniProt P35201 256-530); assay: analytical ultracentrifugation
Mif2 DHBD = Mif2 DHBD (Saccharomyces cerevisiae (budding yeast), UniProt P35201 256-365); assay: analytical ultracentrifugation

B1: Mif2 core (Mif2c) dimer, Mif2 residues 256-530 (domain or fragment, budding yeast, UniProt P35201 256-530, looked up)
chain: NTNDNEDDYIRRQASDVVRTDSIIDRNGLRKSTRVKVAPLQYWRNEKIVYKRKSNKPVLDIDKIVTYDESEDEEEILAAQRRKKQKKKPTPTRPYNYVPTGRPRGRPKKDPNAKENLIPEDPNEDIIERIESGGIENGEWLKHGILEANVKISDTKEETKDEIIAFAPNLSQTEQVKDTKDENFALEIMFDKHKEYFASGILKLPAISGQKKLSNSFRTYITFHVIQGIVEVTVCKNKFLSVKGSTFQIPAFNEYAIANRGNDEAKMFFVQVTVS
stoichiometry N (AUC): 2

B2: 40-bp AT-rich dsDNA (dsDNA)
DNA 1: AAAGTAAAAAATAAAAAGTAGTTTATTTTTAAAAAATAAA
DNA 2: TTTATTTTTTAAAAATAAACTACTTTTTATTTTTTACTTT
binding result (Mif2c (Mif2 core) dimer): binds

B3: 20-bp AT-rich dsDNA (dsDNA)
DNA 1: AAAGTAAAAAATAAAAAGTA
DNA 2: TACTTTTTATTTTTTACTTT
binding result (Mif2 DHBD): binds
